The results in this text go back to publication PMC10373542.

The assay concerns the target SARS-CoV-2 WA-1 stabilized S trimer, HexaPro (SARS-CoV-2) (UniProt P0DTC2). The experiment in a line: BLI. (In general: In BLI a coated tip is dipped into the sample, and binding shifts an interference pattern.)

CR3022 monoclonal antibody came in with a fold increase of binding when S protein is bound to WRAIR-2063 of 6 fold.
